Measured values from ChEMBL document CHEMBL1221387, “Prenylflavonoids from Glycyrrhiza uralensis and their protein tyrosine phosphatase-1B inhibitory activities” (Bioorg Med Chem Lett, 2010).

How the values were obtained:
[1] = substrate: COc1c(CC=C(C)C)c(O)cc(O)c1-c1oc2cc(O)ccc2c1C; conditions: Homo sapiens; 10 uM
Description: Competitive inhibition of human recombinant PTP1B at 10 uM by Lineweaver-Burke plot analysis

[2] = substrate: COc1c(CC=C(C)C)c(O)cc(O)c1-c1oc2cc(O)ccc2c1C; conditions: Homo sapiens; 20 uM
Description: Competitive inhibition of human recombinant PTP1B at 20 uM by Lineweaver-Burke plot analysis

[3] = substrate: COc1c(CC=C(C)C)c(O)cc(O)c1-c1oc2cc(O)ccc2c1C; conditions: Homo sapiens; 30 uM
Description: Competitive inhibition of human recombinant PTP1B at 30 uM by Lineweaver-Burke plot analysis

B1: Tyrosine-protein phosphatase non-receptor type 1 (Homo sapiens), P18031 (protein)
chain: MEMEKEFEQIDKSGSWAAIYQDIRHEASDFPCRVAKLPKNKNRNRYRDVSPFDHSRIKLHQEDNDYINASLIKMEEAQRSYILTQGPLPNTCGHFWEMVWEQKSRGVVMLNRVMEKGSLKCAQYWPQKEEKEMIFEDTNLKLTLISEDIKSYYTVRQLELENLTTQETREILHFHYTTWPDFGVPESPASFLNFLFKVRESGSLSPEHGPVVVHCSAGIGRSGTFCLADTCLLLMDKRKDPSSVDIKKVLLEMRKFRMGLIQTADQLRFSYLAVIEGAKFIMGDSSVQDQWKELSHEDLEPPPEHIPPPPRPPKRILEPHNGKCREFFPNHQWVKEETQEDKDCPIKEEKGSPLNAAPYGIESMSQDTEVRSRVVGGSLRGAQAASPAKGEPSLPEKDEDHALSYWKPFLVNMCVATVLTAGAYLCYRFLFNSNT
[1]
  Km: 3.5 µM
[2]
  Km: 4.2 µM
[3]
  Km: 5.5 µM
